The results in this text go back to patent US20200199216A1 (KINDRED BIOSCIENCES, published 2020).

The target in assay [1] is T1, canine IL17A (as used at 1 nM in the H1080 cell assay) (canine).
T1 chain: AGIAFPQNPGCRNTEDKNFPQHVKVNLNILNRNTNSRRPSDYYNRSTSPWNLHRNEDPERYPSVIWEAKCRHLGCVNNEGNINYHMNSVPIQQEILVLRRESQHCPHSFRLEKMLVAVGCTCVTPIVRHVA
Briefly: cell-based or functional assay.

Assay [2] deals with T2, canine IL17A-huFc (canine).
T2 construct: also called canine IL17A-hFc; not shown: human Fc on the C-terminal
T2 chain: T1 chain
Briefly: BLI (Octet); canine IL17A-huFc captured on anti-human Fc sensors, antibody at 10 µg/mL. The method, then:
Briefly, antibody concentrations were measured by protein A assay using Biosensor Octet (Forte Bio). Canine IL17A-huFc was captured to anti-human Fc bound biosensors. The association of anti-IL17A antibody from clones A, C, D, and E to the canine IL17A-huFc was monitored for 90 seconds. Dissociation was monitored for 600 seconds. A buffer only blank curve was subtracted to correct for any drift. The data were fit to a 1:1 binding model using ForteBio™ data analysis software to determine the kon, koff, and the Kd. The buffer for dilutions and all binding steps was: 20 mM phosphate, 150 mM NaCl, pH 7.2.

Assay [3] deals with T2, canine IL17A-huFc. As to the kind of experiment: ELISA; canine IL17A-huFc captured on anti-human Fc, detection goat anti-mouse Fc-HRP. Here is the method: Binding affinity of monoclonal antibodies A, B, C, D, and E to canine IL17A-huFc polypeptide was analyzed by ELISA. In the binding ELISA performed, the wells were coated with anti-human Fc antibody. Canine IL17A-huFc protein was then added to the wells. Antibody purified from each of the five hybridoma clones was added to the wells at various concentrations (19.35 nM, 6.45 nM, 2.15 nM, 0.75 nM, 0.24 nM, 0.08 nM, 0.03 nM, and 0 nM). Goat anti-mouse Fc-HRP was added and color was developed. […] Table 3 below provides the EC50 values associated with the binding ELISA for each of the clones.
For orientation: An ELISA detects its analyte on a solid surface through an enzyme-linked reagent.

The target in assay [4] is T3, canine IL17A-polyHis (canine, biotinylated (EZ-Link NHS-LC-biotin) in the biosensor assays).
T3 construct: also called biotinylated canine IL17A-polyHis; not shown: poly-His tag on the C-terminal
T3 chain: T1 chain
Briefly: BLI (Octet); biotinylated canine IL17A-polyHis on streptavidin sensors, antibody 0-220 nM, 1:1 model. The method, then:
The binding analysis was performed using a Biosensor Octet as follows. Briefly, canine IL17A-polyHis, which was expressed and purified from CHO-S cells, was biotinylated using EZ-Link NHS-LC-biotin (Catalog No. 21336, Thermo Scientific). Free, unreacted biotin was removed from biotinylated IL17A by dialysis. Biotinylated canine IL17A was captured on streptavidin sensor tips (Catalog No. 18-509, ForteBio). The association of different concentrations (0 nM, 18.33 nM, 45.87 nM, 110 nM, 220 nM) of hybridoma Clone C or caninized Clone C antibody to canine IL17A was monitored for 90 seconds. Dissociation was monitored for 600 seconds. A buffer only blank curve was subtracted to correct for any drift. The data were fit to a 1:1 binding model using ForteBio™ data analysis software to determine the kₒₙ, koff, and the Kd. The buffer for dilutions and all binding steps was: 20 mM phosphate, 150 mM NaCl, pH 7.2.

The target of assay [5] is T4, canine IL17A-hFc-polyHis Mutant 3 (Q103R).
T4 IL17A-hFc-polyHis fusion chain: T1 chain with Q103R
As to the kind of experiment: Western blot of 3-fold concentrated 293 supernatants, 25 µL per lane, SDS-PAGE with or without DTT, PVDF, probed with Clone C. The method, then:
(§1) Plasmid constructs containing nucleotide sequences encoding each of the canine IL17A-hFC-polyHis mutants were transiently transfected into 293 cells and the supernatants concentrated 3-fold. Each mutant was separated by SDS-PAGE (25 μL per lane) in the presence or absence of DTT and the proteins transferred to a PVDF membrane. The blot was probed using either Clone C antibody or anti-human IgG Fc (control).

Assay [6] addresses T5, canine IL17A-hFc-polyHis Mutant 5 (C-terminal deletion of amino acids 126-131).
T5 IL17A-hFc-polyHis fusion chain: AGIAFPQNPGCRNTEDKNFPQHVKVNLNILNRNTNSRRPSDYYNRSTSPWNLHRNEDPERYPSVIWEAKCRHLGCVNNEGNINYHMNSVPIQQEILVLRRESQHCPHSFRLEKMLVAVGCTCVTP
The description is as above. The method, then: as §1

Assay [7] deals with T6, canine IL17A-hFc-polyHis Mutant 1 (R71L, L73W, I82T) (canine).
T6 construct: Tested as 3-fold concentrated supernatant of transfected 293 cells; not shown: human Fc; poly-His tag
T6 chain: T1 chain with R71L, L73W, I82T
The description is as above. The method, then:
as §1

In assay [8] the target is T7, equine IL17A-polyHis (equine, biotinylated in the biosensor assay).
T7 construct: not shown: poly-His tag on the C-terminal
T7 chain: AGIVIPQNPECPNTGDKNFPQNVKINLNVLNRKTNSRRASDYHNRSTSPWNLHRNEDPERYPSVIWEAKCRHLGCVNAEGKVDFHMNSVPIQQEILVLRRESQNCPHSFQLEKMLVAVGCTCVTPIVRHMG
As to the kind of experiment: BLI (Octet); biotinylated equine IL17A-polyHis on streptavidin sensors, antibody 20 µg/mL; BLI (Octet), biotinylated equine IL17A-polyHis on streptavidin sensor, antibody 20 µg/mL. The method, then:
The binding analysis was performed using a Biosensor Octet as follows. Both feline IL17A-polyHis and equine IL17A-polyHis were biotinylated and immobilized to streptavidin biosensors. The association of monoclonal antibody Clones A, C, D, and E (20 μg/mL) to either feline or […] IL17A-polyHis was monitored for 90 seconds. Dissociation was monitored for 600 seconds. A buffer only blank curve was subtracted to correct for any drift. The data were fit to a 1:1 binding model using ForteBio™ data analysis software to determine the kₒₙ, koff, and the Kd. The buffer for dilutions and all binding steps was: 20 mM phosphate, 150 mM NaCl, pH 7.2. […] Weak binding signals of Clone A to feline IL17A and Clone C to feline IL17A were observed.

Assay [9] addresses T1, canine IL17A (as used at 1 nM in the …). Briefly: cell-based or functional assay.
Assay [10] deals with T8, canine IL17F-polyHis (canine, biotinylated in the biosensor assay).
T8 construct: also called IL17F homodimer; not shown: poly-His tag on the C-terminal
T8 chain: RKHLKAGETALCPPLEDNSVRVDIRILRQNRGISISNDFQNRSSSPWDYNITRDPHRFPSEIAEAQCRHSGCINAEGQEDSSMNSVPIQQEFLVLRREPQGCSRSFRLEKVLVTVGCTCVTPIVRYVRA
As to the kind of experiment: BLI (Octet); biotinylated canine IL17F-polyHis on streptavidin sensors, antibody 0-124 nM, 1:1 model. The method, then: The binding analysis was performed using a biosensor Octet as follows. Briefly, canine IL17F-polyHis was biotinylated using EZ-Link NHS-LC-biotin (Catalog No. 21336, Thermo Scientific). Free, unreacted biotin was removed from biotinylated IL17F-polyHis by dialysis. Biotinylated canine IL17F was captured on streptavidin sensor tips (Catalog No. 18-509, ForteBio). The association of different concentrations (0 nM, 2 nM, 10.1 nM, 21.3 nM, 43.3 nM, 86.7 nM, 124 nM) of the caninized Clone C antibody and canine IL17F-polyHis was monitored for ninety seconds. Dissociation was monitored for 600 seconds. A buffer only blank curve was subtracted to correct for any drift. The data were fit to a 1:1 binding model using ForteBio™ data analysis software to determine the kₒₙ, koff, and the Kd. The buffer for dilutions and all binding steps was: 20 mM phosphate, 150 mM NaCl, pH 7.2.

Positions count from the first letter of the chain named. Bounds are passed on as bounds.

B1: mouse monoclonal antibody Clone C (antibody, mouse IgG1, V domains shown)
VH: EVQLVESGGGLVQPGGSLKLSCAASGFTFSSYGMSWVRQTPDKRLELVAIINSNGGSTYYPDSVKGRFTISRDNDKNSLYLQMSSLKSEDTAMYYCVRCHYDYERVFDYWGQGTTLTVSS
VL: DIQMTQSSSYLSVSLGGRVTITCKANDHINNWLAWYQQKPGNAPRLLISGSTSLETGVPSRFSGSGSGKDYTLSITSLQTEDVATYYCQQYWSTPFTFGSGTKLEIK
notes: Hybridoma antibody; also called hybridoma Clone C
B1: the “EC50 (ng/mL), H1080 Cell Functional Assay (IL6 secretion)” value in assay [1] turned out to be 7 ng/mL. Also, the Kd – broadly, a measure of binding affinity in units of concentration – in assay [2] was under 10 nM; in assay [4] it was 7.9 nM; in [8] it was 0.13 nM. The midpoint of the response in assay [3], the EC50, lay at 0.2 ng/mL. Moreover, the binding result in assay [5], in assay [6] and in [7] was “binds” each time.

B2: caninized Clone C antibody (caninized Clone C VH with canine IgG-B, caninized Clone C VL with canine kappa constant region) (antibody, V domains shown)
VH: EVQLVESGGGLVKPGGSLRLSCAASGFTFSSYGMSWVRQAPGKRLELVAIINSNGGSTYYPDSVKGRFTFSLDTSKNTLYLQMNSLRAEDTAMYYCVRCHYDYERVFDYWGQGTLVTVSS
VL: DIQMTQSPASVSGSLGDKVSITCKANDHINNWLAWYQQLPGNAPRLLISGSTSLESGVPDRFSGSKSGSSFTLTISGLQPEDFATYYCQQYWSTPFTFGSGTKVEIKR
notes: expressed in CHO-S cells, purified on Protein A
On to B2, for which the “IC50, H1080 cell-based canine IL17A neutralization assay (IL6 secretion)” value in assay [9] amounted to 0.41 nM. Besides, the Kd in [4] was 1.4 nM; in assay [10] it was 4.1 nM.
